Source: the supplement of paper PMC9170038

Tested on: K4 kissing-loop RNA reporter
Assay: apparent KD of K4 kissing-loop reporter; higher = weaker reporter binding
Conditions: Eterna round: R107
Protocol: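 RNA-MaP round R107: designed RNA switches with theophylline, tryptophan, arginine or FMN aptamers are transcribed on-chip within common flanks. They are titrated with a labelled K4 kissing-loop RNA reporter in RNA-MaP buffer (100 mM Tris pH 7.5, 80 mM KCl, 4 mM MgCl2), without ligand or with the indicated ligand. Median apparent KD per design.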

[1] = input ligand: theophylline 20 uM
[2] = input ligand: tryptophan 2.4 mM
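Also: bound reporter read as fluorescence of individual clusters on recovered sequencing chips by microscopy, with normalized cluster intensities fitted with a binding model.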

Sequence | apparent KD of K4 kissing-loop reporter (input ligand: FMN 200 uM) | apparent KD of K4 kissing-loop reporter (input ligand: arginine 13.2 mM) | apparent KD of K4 kissing-loop reporter (input ligand: none) | apparent KD of K4 kissing-loop reporter [1] | apparent KD of K4 kissing-loop reporter [2]
UGUAUGUGAUUUGAUACCAGACCAGCUGGUGUUUCAAGAGUGAUGUUCUUGUAGGUUUGGGUCCCUUGGCAGCAAAUCGCAUACU [KL-SSTheoB15] | 0.159 µM | 0.122 µM | 0.152 µM | 0.122 µM | 0.131 µM
UGUCAUUGGUCGGCCGCCACUAGGACCGGGUAUAACCUAGUGAUGUUAGUAAGUACGGCCGCCACUAGGACCGGGACCGAUGACU [KL-SSTryp-B19 #DoubleAptamer] | 0.483 µM | 0.369 µM | 0.583 µM | 0.462 µM | 0.0875 µM
UGUCAUUGGUCGGCCGCCACUUCAUGUAGAGUGAUGUUUUGUAGGACGGAUCGAAAGAUCUGUCGGAGGACCGGGACCGAUGACU [FiskerMod 16 - Jieux - Same State - Tryptophan B] | 0.121 µM | 0.119 µM | 0.134 µM | 0.266 µM | 1.69 µM
UGUCAUUGGUCGGCCGCCACUUCGUAUGAAGUGAUGUUUUGUAGAUUGUGUUGAAAGGUGUGGUGAAGGACCGGGACCGAUGACU [FiskerMod 23 - Jieux - Same State - Tryptophan B] | 0.898 µM | 0.623 µM | 1.01 µM | 1.05 µM | 0.769 µM
UGUCAUUGGUCGGCCGCCACUUGAAGGUCAAAGACCAUAGAGUGAUGUUCUAAGACGAAAGUCACAAGGACCGGGACCGAUGACU [TrypBS 3 #SwitchBubble #K4Middle] | 0.361 µM | 0.134 µM | 0.133 µM | 0.265 µM | 0.607 µM
UGUCAUUGGUCGGCCGCCACUUUAUAUGGAGUGAUGUUUUGUAAAUUGUGUUGAAAGGUGUGGUAAAGGACCGGGACCGAUGACU [FiskerMod 26 - Jieux - Same State - Tryptophan B] | 1.03 µM | 0.637 µM | 0.931 µM | 0.727 µM | 0.651 µM
UGUCAUUGGUCUGAUACCAGCUUGAUCGGAAACGAUCUGCUGGAGUGAUGUUCCAAGUAAAGCCCUUGGCAGCAGACCGAUGACU [TheoBS 8 #SwitchBubble #StaticStem] | 0.129 µM | 0.0598 µM | 0.103 µM | 0.125 µM | 0.102 µM
UGUCAUUGGUCUGAUACCAGGUUGAUCGGUAAACGAUCUCCUGGAGUGAUGUUCCAAAAUAUCCCUUGGCAGCAGACCGAUGACU [TheoBS 6 #SwitchBubble #StaticStem] | 0.571 µM | 0.32 µM | 0.545 µM | 0.492 µM | 0.35 µM
UGUCAUUGGUCUGAUACCAGUACCCUUGGCAGCCGAGGAGUGAUGUUCCAAGGAUACCAGUACCCUUGGCAGCAGACCGAUGACU [TheoBS 30 #DoubleAptamer #SwitchBubble] | 0.219 µM | 0.178 µM | 0.186 µM | 0.108 µM | 0.215 µM
UGUCAUUGGUCUGAUACCAGUUGAUGACGAAUACGUCAACUGGAGUGAUGUUCCAAUAACAACCCUUGGCAGCAGACCGAUGACU [MAT - Same State Theophlline B - Mod of Eli - D3] | 0.557 µM | 0.494 µM | 0.53 µM | 0.953 µM | 0.563 µM
UGUCUACCGGGAAGGAGCGUGAAUGAUAAUGGAUAUAGUGAUGUUAUAUAUACGAACGAAUCGCAGGUAGGUCGCCCGGAUCCCU [SSArgB.W] | 0.431 µM | 0.419 µM | 0.606 µM | 0.431 µM | 0.481 µM
UGUGUACCGGGAAGGAGCGUGAAUGAGAAUGGAUAUAGUGAUGUUAUGUAUACGAACGAAUCGCAGGUAGGUCGCCCGGAUCCCU [SSArgB.Z] | 0.513 µM | 0.32 µM | 0.677 µM | 0.396 µM | 0.461 µM
UGUUACCAGUGAUGUUGGGAGAUGAAGAGCAAGGAUAUGUGAUAGUACAGAAGGUGCGUCGUCGUGAUUAUCACGCUCUGUGUUA [theeternabot_exclusion_KL_FMN_A_8] | 0.266 µM | 0.0983 µM | 0.141 µM | 0.138 µM | 0.111 µM
UGUUAUGUAUCAGGAUAUUAGUGAUGUUUGUUGAUGUUAGUGAUGUUGAUAUUUGUUUUAUGUAUUUAAGAAGGGAUUGAGAUGU [ooilmullin] | 0.0539 µM | 0.0192 µM | 0.0387 µM | 0.0278 µM | 0.0414 µM
UGUUUUUACUGAAGGAGCGGCAAUUGAUACGUAGAUAUAGUGAUGUUAUAUAAGAUAGAGAGCCAGGUAGGUCGCAGAAUGUAUC [ExArgB.aC] | 0.214 µM | 0.212 µM | 0.237 µM | 0.252 µM | 0.231 µM
